Reference: paper PMC12846656

Assays:
[1] = tested on: WT Np (SARS-CoV-2 (ancestral, WA-1/2020 isolate)); experiment: fluorescence anisotropy salt titration
HIV-1 Gag WT (HIV-1) = experiment: fluorescence anisotropy salt titration

Row | Substance | Kd [1] | Kd (HIV-1 Gag WT (HIV-1))
1 | HIV-1 TARpolyA | 260 µM | –
2 | HIV-1 WT Psi | 38 µM | –
3 | SL1-4 | 260 µM | 120000 µM
4 | SL1-5 | 36 µM | 21000 µM
5 | SL5 | 500 µM | 140 µM
